Laboratory results published in publication PMC2795026.
Like-named read-outs stand apart in the source and are kept apart here.

How the values were obtained:
[1] = target: T1, Brh2 apoprotein (stripped of Dss1) (Ustilago maydis, UniProt Q8NJ74 1-1075); experiment: EMSA
T1 sequence: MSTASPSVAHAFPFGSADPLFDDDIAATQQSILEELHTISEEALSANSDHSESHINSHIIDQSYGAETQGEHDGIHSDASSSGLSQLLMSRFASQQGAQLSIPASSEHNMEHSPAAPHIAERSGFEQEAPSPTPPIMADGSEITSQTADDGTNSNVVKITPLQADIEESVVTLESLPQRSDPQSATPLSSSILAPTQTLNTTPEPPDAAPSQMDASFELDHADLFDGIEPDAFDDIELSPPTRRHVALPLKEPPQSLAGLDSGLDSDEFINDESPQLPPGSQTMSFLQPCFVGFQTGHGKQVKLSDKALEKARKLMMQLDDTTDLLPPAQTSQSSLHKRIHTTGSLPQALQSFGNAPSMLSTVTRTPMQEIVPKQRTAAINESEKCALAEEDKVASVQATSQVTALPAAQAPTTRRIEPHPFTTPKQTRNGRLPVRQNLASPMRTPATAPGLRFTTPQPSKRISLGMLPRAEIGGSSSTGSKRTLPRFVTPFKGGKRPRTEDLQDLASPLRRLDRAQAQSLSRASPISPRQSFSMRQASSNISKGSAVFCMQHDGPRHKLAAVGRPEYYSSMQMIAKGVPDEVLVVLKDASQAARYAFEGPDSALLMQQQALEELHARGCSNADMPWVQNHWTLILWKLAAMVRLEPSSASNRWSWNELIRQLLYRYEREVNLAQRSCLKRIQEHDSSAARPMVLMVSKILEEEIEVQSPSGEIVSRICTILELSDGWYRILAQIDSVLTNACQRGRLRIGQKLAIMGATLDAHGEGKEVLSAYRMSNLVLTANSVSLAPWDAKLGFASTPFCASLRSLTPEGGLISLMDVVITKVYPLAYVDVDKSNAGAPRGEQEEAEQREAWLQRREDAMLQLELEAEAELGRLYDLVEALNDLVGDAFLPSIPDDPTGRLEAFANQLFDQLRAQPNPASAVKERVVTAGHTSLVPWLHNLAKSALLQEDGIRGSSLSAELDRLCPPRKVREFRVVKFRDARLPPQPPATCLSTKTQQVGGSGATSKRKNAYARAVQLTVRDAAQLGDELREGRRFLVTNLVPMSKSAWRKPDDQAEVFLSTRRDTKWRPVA

MBP-Brh2 [2] = target: T2, MBP-Brh2 (Ustilago maydis, UniProt Q8NJ74 1-1075); experiment: pull-down
T2 sequence: T1 sequence

MBP-Brh2NT-His = target: T3, MBP-Brh2NT-His (Ustilago maydis, UniProt Q8NJ74 1-551); experiment: EMSA
T3 sequence: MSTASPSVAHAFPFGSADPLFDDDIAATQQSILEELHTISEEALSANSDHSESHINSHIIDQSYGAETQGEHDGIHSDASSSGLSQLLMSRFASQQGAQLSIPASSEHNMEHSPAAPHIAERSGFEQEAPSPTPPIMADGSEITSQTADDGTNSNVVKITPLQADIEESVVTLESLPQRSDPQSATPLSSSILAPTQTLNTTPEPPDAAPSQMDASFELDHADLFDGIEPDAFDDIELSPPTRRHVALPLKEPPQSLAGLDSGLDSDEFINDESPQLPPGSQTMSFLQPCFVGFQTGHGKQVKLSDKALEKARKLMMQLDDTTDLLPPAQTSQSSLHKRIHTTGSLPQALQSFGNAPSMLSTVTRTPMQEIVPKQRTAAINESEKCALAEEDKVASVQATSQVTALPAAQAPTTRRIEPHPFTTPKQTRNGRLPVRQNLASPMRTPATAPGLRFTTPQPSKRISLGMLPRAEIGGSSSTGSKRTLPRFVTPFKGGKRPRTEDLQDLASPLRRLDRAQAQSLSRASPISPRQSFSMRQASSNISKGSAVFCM

MBP-Brh2 [3] = target: T2, MBP-Brh2; experiment: pull-down; remark: listed apart in the source

B1: ss60mer (ssDNA)
DNA: GCTGCGCAAGGATAGGTCGAATTTTCTCATTTTCCGCCAGCAGTCCACTTCGATTTAATT
- binding result [1]: binds
- binding result (MBP-Brh2 [2]): binds
- binding result (MBP-Brh2NT-His): binds

B2: 3'-biotin ss60mer (ssDNA)
DNA: B1 DNA
- binding result (MBP-Brh2 [3]): binds
